{
  "source": "patent EP1117419B1",
  "about": "(The University Of Southern California, dated 2010)",
  "binders": {"B1": {"name": "contortrostatin (CN), native homodimer purified from Agkistrodon contortrix contortrix venom (ligand)", "chain": "DAPANPCCDAATCKLTTGSQCADGLCCDQCKFMKEGTVCRRARGDDLDDYCNGISAGCPRNPFHA"}},
  "key": {"[1]": {"target": "binding sites on unactivated human platelets", "assay": "Scatchard analysis of CN binding to unactivated human platelets"}, "[2]": {"target": "canine platelet (GP)IIb/IIIa on canine platelets (platelet rich plasma) (canine, UniProt Q9TUN8 32-1036; A0A8I3PMU9 158-919)"}, "[3]": {"target": "human platelet membrane glycoprotein (GP)IIb/IIIa on human platelets (platelet rich plasma) (human, UniProt P08514 32-1039; P05106 27-788)"}},
  "data": [
    {"binder": "B1", "values": [
      {"measurement": "Kd", "setting": "[1]", "value": 37, "unit": "nM"},
      {"measurement": "IC50", "setting": "[2]", "value": 0.24, "unit": "µg/mL"},
      {"measurement": "IC50", "setting": "[3]", "value": 0.4, "unit": "µg/mL"}
    ]}
  ]
}
